In article PMC12888917, “Structure-based engineering of the midnolin-proteasome pathway for targeted protein degradation” (Protein & Cell, 2025):

Biological target: T1, full-length RPN1 (UniProt Q13200 1-908)
T1 construct: RPN1, full length, as isolated protein in the BLI assay
Assay: BLI; full-length RPN1 and GST-tagged midnolin C-Helix (375–413)
Settings: both partners purified

T1 sequence (Q13200 whole entry): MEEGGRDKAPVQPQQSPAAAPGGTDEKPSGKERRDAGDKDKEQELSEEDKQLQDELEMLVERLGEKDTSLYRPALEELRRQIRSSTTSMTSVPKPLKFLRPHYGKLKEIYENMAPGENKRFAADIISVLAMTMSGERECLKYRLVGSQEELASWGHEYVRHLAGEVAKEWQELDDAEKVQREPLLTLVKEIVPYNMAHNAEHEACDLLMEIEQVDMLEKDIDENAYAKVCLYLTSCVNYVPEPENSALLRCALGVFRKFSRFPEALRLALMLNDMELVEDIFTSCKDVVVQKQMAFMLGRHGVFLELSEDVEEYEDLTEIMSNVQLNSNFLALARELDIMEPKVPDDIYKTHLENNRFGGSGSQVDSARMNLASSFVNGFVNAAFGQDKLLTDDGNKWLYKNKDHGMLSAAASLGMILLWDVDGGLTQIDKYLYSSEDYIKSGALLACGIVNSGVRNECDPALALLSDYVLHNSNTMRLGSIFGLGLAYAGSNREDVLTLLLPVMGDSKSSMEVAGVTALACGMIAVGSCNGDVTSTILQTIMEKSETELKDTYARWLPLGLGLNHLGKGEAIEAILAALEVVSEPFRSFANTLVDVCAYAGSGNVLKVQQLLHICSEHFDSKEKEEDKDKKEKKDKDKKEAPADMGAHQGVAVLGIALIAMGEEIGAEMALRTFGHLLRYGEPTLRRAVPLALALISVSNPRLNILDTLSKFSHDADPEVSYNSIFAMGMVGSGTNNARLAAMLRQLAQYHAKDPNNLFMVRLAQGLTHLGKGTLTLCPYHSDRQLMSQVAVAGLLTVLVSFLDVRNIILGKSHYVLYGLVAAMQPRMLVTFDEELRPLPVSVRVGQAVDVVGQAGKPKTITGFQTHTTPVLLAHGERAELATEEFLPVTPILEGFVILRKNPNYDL

PPGDRLRQTENRATRCKVERLQLLLQQKRLRRKARRDAR (domain or fragment, human, UniProt Q504T8 375-413, looked up, also called MIDN C-Helix) [GST-tagged midnolin C-Helix (375–413)]
Kd: ~88.5 nM
